Experimental data taken from patent US20220348650A1 (BIO THERA SOLUTIONS, published 2022).

T1: mouse TIGIT (mouse, UniProt P86176 29-148, limits assumed)
T1 sequence: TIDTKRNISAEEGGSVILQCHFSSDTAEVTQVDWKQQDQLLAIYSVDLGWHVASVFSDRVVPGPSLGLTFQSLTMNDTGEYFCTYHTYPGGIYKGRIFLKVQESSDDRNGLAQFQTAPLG

T2: human TIGIT (antigen of the ELISA and of the m10D8 Biacore assay; construct not stated) (human, UniProt Q495A1 22-141)
T2 sequence: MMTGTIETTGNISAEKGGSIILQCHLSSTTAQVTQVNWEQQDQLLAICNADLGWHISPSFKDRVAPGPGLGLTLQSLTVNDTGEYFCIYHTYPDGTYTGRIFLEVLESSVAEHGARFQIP

T3: TIGIT-his tag antigen (UniProt Q495A1 22-141, limits assumed)
T3 construct: also called univalent TIGIT-his; not shown: his tag
T3 sequence (looked up): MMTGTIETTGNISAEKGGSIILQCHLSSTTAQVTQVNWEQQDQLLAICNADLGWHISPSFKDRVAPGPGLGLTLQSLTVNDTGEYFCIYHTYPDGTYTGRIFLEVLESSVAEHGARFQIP

T4: full-length human TIGIT on the cell surface (Jurkat-hTIGIT 2E6, CTI-Jurkat, primary human CD3+ cells) (human, UniProt Q495A1 22-244)
T4 construct: whole, on cells; also called TIGIT on Jurkat cell membrane; Jurkat cells overexpressing human TIGIT
T4 sequence (looked up): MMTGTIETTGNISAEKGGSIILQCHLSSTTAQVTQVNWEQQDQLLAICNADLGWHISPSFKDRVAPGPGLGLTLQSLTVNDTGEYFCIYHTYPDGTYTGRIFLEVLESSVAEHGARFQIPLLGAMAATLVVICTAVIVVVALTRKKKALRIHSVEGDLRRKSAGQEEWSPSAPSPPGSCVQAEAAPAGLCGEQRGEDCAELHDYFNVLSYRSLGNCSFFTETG


What was measured:
mouse TIGIT = target: T1, mouse TIGIT; assay: ELISA on mouse TIGIT, OD450
[1] = target: T5, TIGIT-Fc fusion protein (human TIGIT extracellular region fused to human IgG1 constant region) (human); assay: competition ELISA: TIGIT-Fc coated at 2 µg/mL, antibody titrated in 2 µg/mL PVR-Fc-bio (blocked ligand), OD450
[2] = target: T2, human TIGIT (antigen of the ELISA and …); assay: Biacore SPR; antigen not given
TIGIT-his tag antigen [3] = target: T3, TIGIT-his tag antigen; assay: SPR-Biacore; series 3.125 to 50 nM printed on the panel
[4] = target: T4, full-length human TIGIT on the cell …; assay: binding to Jurkat-hTIGIT 2E6 cells, flow cytometry (FIG. 23)
[5] = target: T5, TIGIT-Fc fusion protein (human TIGIT …); assay: competition ELISA, blocks PVR binding to TIGIT (method of Example 3)
[6] = target: T2, human TIGIT (antigen of the ELISA and …); assay: ELISA, binding to TIGIT (FIG. 12)
TIGIT-his tag antigen [7] = target: T3, TIGIT-his tag antigen; assay: SPR-Biacore, TIGIT-his tag antigen (second batch)
[8] = target: T4, full-length human TIGIT on the cell …; assay: flow cytometry on Jurkat-hTIGIT cells: antibody titrated against biotinylated PVR-Fc (blocked ligand), detected with streptavidin PE, mean FL2-A
Experimental: (§1) The antibody was serially two-fold diluted from 15 nM to the 10th concentration (including 0 nM). The 10 concentration gradients of antibody were separately transferred into 10 centrifuge tubes each containing 1×10⁶ Jurkat-hTIGIT cells. The cells were then resuspended, and the mixture was incubated at 4° C. for 1 hour. The cells were centrifuged. The supernatant was discarded and the cells were washed twice with PBS. The cells were resuspended in 100 μL of 1:2000 diluted streptavidin PE (Thermo, Cat. No.: 12-4317-87) and incubated at 4° C. for 40 minutes. The cells were centrifuged, and the supernatant was discarded. The cells were washed twice with PBS, resuspended in 200 μL of PBS, and were detected for fluorescent signal using a flow analyzer (mean FL2-A). Finally, the collected fluorescent signals were plotted by 4-parameter fitting for analysis, and the IC₅₀ was calculated.

[9] = target: T2, human TIGIT (antigen of the ELISA and …); assay: ELISA, binding to TIGIT
TIGIT-his tag antigen [10] = target: T3, TIGIT-his tag antigen; assay: SPR-Biacore, TIGIT-his tag antigen
[11] = target: T4, full-length human TIGIT on the cell …; assay: cell-based or functional assay
[12] = target: T2, human TIGIT (antigen of the ELISA and …); assay: ELISA, binding to TIGIT (FIG. 11)
[13] = target: T4, full-length human TIGIT on the cell …; assay: flow cytometry competition with 80 nM biotinylated PVR-Fc on Jurkat-hTIGIT cells
Experimental: as §1

Binder	IC50 [5]	EC50 [6]	Kd (TIGIT-his tag antigen [7])	koff (TIGIT-his tag antigen [7])	kon (TIGIT-his tag antigen [7])	EC50 [9]	Kd (TIGIT-his tag antigen [10])	koff (TIGIT-his tag antigen [10])	kon (TIGIT-his tag antigen [10])	EC50 [12]	IC50 [13]	further results
10A7 antibody (hamster anti-mouse TIGIT antibody, positive control) (antibody, V domains shown, also called positive anti-TIGIT antibody (10A7)) VH: EVQLVESGGGLTQPGKSLKLSCEASGFTFSSFTMHWVRQSPGKGLEWVAFIRSGSGIVFYADAVRGRFTISRDNAKNLLFLQMNDLKSEDTAMYYCARRPLGHNTFDSWGQGTLVTVSS VL: DIVMTQSPSSLAVSPGEKVTMTCKSSQSLYYSGVKENLLAWYQQKPGQSPKLLIYYASIRFTGVPDRFTGSGSGTDYTLTITSVQAEDMGQYFCQQGINNPLTFGDGTKLEIKR	–	–	–	–	–	–	–	–	–	–	–	EC50 (read off the curve) (mouse TIGIT): ~0.02 µg/mL; IC50 [1]: 0.263 µg/mL
recombinant mouse anti-human TIGIT antibody m10D8 (antibody, mouse IgG2a, V domains shown) VH: EVKLQESGGGLVQPGGSLKLSCAASGFTFSSYGMSWVRQNPDKRLELVATINSNGGSTYYPDSVKGRFTISRDNAKNTLYLQMSSLKSEDTAMYYCARLGTGTLGFAYWGQGTLVTVSS VL: DIVMTQAHKFMSTSGGDRVSITCKASQDVKTAVSWYQQKPGQSPKLLIYWASTRHTGVPDRFTGSGSGTDYTLTISSVQAEDLALYYCQQHYSTPWTFGGGTKLEIKR	–	–	–	–	–	–	–	–	–	–	–	binding result (mouse TIGIT): no binding (tested: about 2 µg/mL); IC50 [1]: 0.273 µg/mL; Kd [2]: 0.197 nM; koff [2]: 0.0002 s⁻¹; kon [2]: 1.02e+06 M⁻¹ s⁻¹
Tiragolumab (positive control antibody) (antibody, human IgG1, kappa, V domains shown) VH: EVQLQQSGPGLVKPSQTLSLTCAISGDSVSSNSAAWNWIRQSPSRGLEWLGKTYYRFKWYSDYAVSVKGRITINPDTSKNQFSLQLNSVTPEDTAVFYCTRESTTYDLLAGPFDYWGQGTLVTVSS VL: not shown	0.429 µg/mL	0.0536 µg/mL	0.113 nM	9.24e-05 s⁻¹	818000 M⁻¹ s⁻¹	–	–	–	–	–	–	Kd (TIGIT-his tag antigen [3]): 0.133 nM; EC50 [4]: 1.91 nM; IC50 [8]: 2.38 nM
h10D8V1 (antibody, human IgG1, kappa, Humanized m10D8, first round) heavy: not shown light: DIQMTQSPSTLSAFVGDTITITCKASQDVKTAVSWYQQKPGQPPKLLIYWASTRHTGVPDRFSGSGSGTDYTLTISSLQAEDVAVYYCQQHYSTPWTFGQGTKVDIKRTVAAPSVFIFPPSDEQLKSGTASVVCLLNNFYPREAKVQWKVDNALQSGNSQESVTEQDSKDSTYSLSSTLTLSKADYEKHKVYACEVTHQGLSSPVTKSFNRGEC	–	–	–	–	–	0.0762 µg/mL	2.18 nM	0.000446 s⁻¹	205000 M⁻¹ s⁻¹	–	–	–
h10D8OFKF (antibody, human IgG1, kappa, V domains shown, fucose removed from the glycan (made in engineered CHO host cells)) VH: QVQLVESGGGVVQPGRSLRLDCKASGFTFSSYGMSWVRQAPGKGLELVATINSNGGSTYYPDSVKGRFTISRDNSKNTLFLQMNSLRAEDTAVYYCARLGTGTLGFAYWGQGTLVTVSS VL: EIVMTQSPATLSLSPGERATLSCKASQDVKTAVSWYQQKPGQAPRLLIYWASTRATGIPARFSGSGSGTDYTLTISSLEPEDFAVYYCQQHYSTPWTFGQGTKVEIKR	–	–	–	–	–	–	–	–	–	–	–	ADCC activity EC50 [11]: 0.0152 nM; ADCC activity, fold of h10D8OF [11]: 8.8 times that of h10D8OF
h10D8V4 (antibody, human IgG1, kappa, V domains shown) VH: QVQLQESGGGLVQPGGSLRLSCAASGFTFSSYGMSWVRQAPGKGLELVATINSNGGSTYYPDSVKGRFTISRDNAKNTLYLQMNSLRAEDTAVYYCARLGTGTLGFAYWGQGTLVTVSS VL: DIVMTQSPSTLSASVGDRVTITCKASQDVKTAVSWYQQKPGQPPKLLIYWASTRHTGVPDRFSGSGSGTDYTLTISSLQAEDVAVYYCQQHYSTPWTFGQGTKVEIKR	0.217 µg/mL	–	–	–	–	–	–	–	–	0.0256 µg/mL	15.8 nM	–
h10D8V5 (antibody, human IgG1, kappa, V domains shown) VH: QVQLQESGGGLVQPGGSLRLSCAASGFTFSSYGMSWVRQNPDKRLELVATINSNGGSTYYPDSVKGRFTISRDNAKNTLYLQMNSLRAEDTAMYYCARLGTGTLGFAYWGQGTLVTVSS VL: DIVMTQSPKTLSASVGDRVTITCKASQDVKTAVSWYQQKPGQSPKLLIYWASTRHTGVPDRFSGSGSGTDYTLTISSLQAEDVALYYCQQHYSTPWTFGGGTKVEIKR	0.284 µg/mL	–	–	–	–	–	–	–	–	0.0241 µg/mL	10.4 nM	–

The next lines start with results.

IC50 [5]	EC50 [6]	Kd (TIGIT-his tag antigen [7])	koff (TIGIT-his tag antigen [7])	kon (TIGIT-his tag antigen [7])	EC50 [9]	Kd (TIGIT-his tag antigen [10])	koff (TIGIT-his tag antigen [10])	kon (TIGIT-his tag antigen [10])	EC50 [12]	IC50 [13]	Binder	further results
–	0.0531 µg/mL	0.468 nM	0.00048 s⁻¹	1.02e+06 M⁻¹ s⁻¹	0.0924 µg/mL	2.55 nM	0.000492 s⁻¹	193000 M⁻¹ s⁻¹	–	–	h10D8V2 (antibody, human IgG1, kappa, Same variable regions as h10D8V1; differs at EU positions 356 and 358 of the constant region) heavy: not shown light: DIQMTQSPSTLSAFVGDTITITCKASQDVKTAVSWYQQKPGQPPKLLIYWASTRHTGVPDRFSGSGSGTDYTLTISSLQAEDVAVYYCQQHYSTPWTFGQGTKVDIKRTVAAPSVFIFPPSDEQLKSGTASVVCLLNNFYPREAKVQWKVDNALQSGNSQESVTEQDSKDSTYSLSSTLTLSKADYEKHKVYACEVTHQGLSSPVTKSFNRGEC	–
0.159 µg/mL	0.0427 µg/mL	3.63 nM	0.00183 s⁻¹	502000 M⁻¹ s⁻¹	–	–	–	–	0.0233 µg/mL	11.3 nM	h10D8OF (antibody, human IgG1, kappa, V domains shown, Humanized m10D8, second round; LCDR2 is the mutant WASTRAT; also called anti-TIGIT antibody h10D8OF) VH: QVQLVESGGGVVQPGRSLRLDCKASGFTFSSYGMSWVRQAPGKGLELVATINSNGGSTYYPDSVKGRFTISRDNSKNTLFLQMNSLRAEDTAVYYCARLGTGTLGFAYWGQGTLVTVSS VL: EIVMTQSPATLSLSPGERATLSCKASQDVKTAVSWYQQKPGQAPRLLIYWASTRATGIPARFSGSGSGTDYTLTISSLEPEDFAVYYCQQHYSTPWTFGQGTKVEIKR	EC50 [4]: 0.696 nM; IC50 [8]: 0.656 nM; ADCC activity EC50 [11]: 0.125 nM
–	–	–	–	–	0.0526 µg/mL	14.1 nM	0.00114 s⁻¹	81200 M⁻¹ s⁻¹	–	–	h10D8V3 (antibody, human IgG1, kappa, V domains shown) VH: EVQLVESGGGLVQPGGSLRLSCAASGFTFSSYGMSWVRQAPGKGLELVATINSNGGSTYYPDSVKGRFTISRDNSKNTLYLQMNSLRAEDTAVYYCARLGTGTLGFAYWGQGTLVTVSS VL: DIQMTQSPSSLSASVGDRVTITCKASQDVKTAVSWYQQKPGKAPKLLIYWASTRHTGVPSRFSGSGSGTDYTLTISSLQPEDFATYYCQQHYSTPWTFGGGTKVEIKR	–
